Measured values as given in patent US20200368361A1 (Regeneron, published 2020).
Where a chain is given by its changes, count along the chain named. Names and notes keep the numbering of the source.

T1: human MSR1 with a C-terminal Myc tag expressed on HEK293.Myc.hMSR1 cells (human, UniProt P21757 1-451)
T1 sequence (looked up): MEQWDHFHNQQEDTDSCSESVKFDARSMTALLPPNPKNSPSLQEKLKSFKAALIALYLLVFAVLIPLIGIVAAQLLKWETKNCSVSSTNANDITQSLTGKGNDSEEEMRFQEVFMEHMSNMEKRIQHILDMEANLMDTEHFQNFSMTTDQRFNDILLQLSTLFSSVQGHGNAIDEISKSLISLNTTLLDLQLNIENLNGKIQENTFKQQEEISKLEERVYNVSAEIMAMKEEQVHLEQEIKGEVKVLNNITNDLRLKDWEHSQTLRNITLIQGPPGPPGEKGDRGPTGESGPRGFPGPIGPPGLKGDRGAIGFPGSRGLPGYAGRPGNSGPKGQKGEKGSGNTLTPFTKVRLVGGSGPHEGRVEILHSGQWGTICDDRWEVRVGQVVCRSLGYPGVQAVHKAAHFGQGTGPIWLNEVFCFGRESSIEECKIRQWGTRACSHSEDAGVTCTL

T2: full length human MSR1 with a C-terminal Myc tag on HEK293.Myc.hMSR1 cells (human, UniProt P21757 1-451)
T2 construct: whole, on cells
T2 sequence (looked up): T1 sequence (looked up)

T3: mouse MSR1 on RAW264.7 cells (mouse, UniProt P30204 1-458)
T3 construct: whole, on cells
T3 sequence (looked up): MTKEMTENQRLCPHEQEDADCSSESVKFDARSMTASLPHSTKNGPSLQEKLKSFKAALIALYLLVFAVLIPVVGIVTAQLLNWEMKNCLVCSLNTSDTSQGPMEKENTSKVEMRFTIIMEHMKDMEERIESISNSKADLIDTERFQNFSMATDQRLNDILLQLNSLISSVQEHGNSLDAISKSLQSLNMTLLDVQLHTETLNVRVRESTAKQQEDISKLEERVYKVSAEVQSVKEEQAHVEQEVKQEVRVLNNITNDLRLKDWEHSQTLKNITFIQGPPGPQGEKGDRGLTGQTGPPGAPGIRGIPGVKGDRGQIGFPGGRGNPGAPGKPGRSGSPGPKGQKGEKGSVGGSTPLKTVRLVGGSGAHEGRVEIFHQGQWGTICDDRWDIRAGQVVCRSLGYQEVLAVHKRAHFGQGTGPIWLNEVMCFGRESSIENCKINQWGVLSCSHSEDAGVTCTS

T4: full length monkey MSR1 on HEK293.mfMSR1 cells (Macaca fascicularis, UniProt A0A2K5UWE2 1-451)
T4 construct: whole, on cells
T4 sequence: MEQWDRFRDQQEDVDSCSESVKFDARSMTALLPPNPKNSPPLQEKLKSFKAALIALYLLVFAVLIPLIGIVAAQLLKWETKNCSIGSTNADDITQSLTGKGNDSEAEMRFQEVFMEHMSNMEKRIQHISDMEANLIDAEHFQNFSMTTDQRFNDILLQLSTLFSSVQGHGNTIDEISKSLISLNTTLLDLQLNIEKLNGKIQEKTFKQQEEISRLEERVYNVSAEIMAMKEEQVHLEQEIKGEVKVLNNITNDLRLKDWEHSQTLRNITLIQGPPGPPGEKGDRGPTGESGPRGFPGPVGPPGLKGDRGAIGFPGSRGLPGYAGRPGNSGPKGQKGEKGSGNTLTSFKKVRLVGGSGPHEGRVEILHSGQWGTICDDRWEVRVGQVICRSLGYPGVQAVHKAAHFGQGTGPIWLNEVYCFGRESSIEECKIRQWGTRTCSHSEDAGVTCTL

B1: H1H21234N (antibody, V domains shown)
VH: QVQLQESGPGLVKPSETLSLTCTVTGGSISRNYWSWIRQPPGKGLEWIGYIYYSGSIDYNPSLKSRVTISVDTSKNQFSLKLSSMTAADTAVYYCARDRWNWKYGMDVWGQGTTVIVSS
VL: EIVLTQSPGTLSLSPGERATLSCRASQTVRNNYLAWYHQKPGQAPRLLIYGASSRATGIPDRFSGSGSGTDFTLTISRLEPEDFTVYYCHQYGNSPWTFGQGTKMEIKR
B2: H1H27731P-N297Q (antibody, V domains shown)
VH: QLQLQESGPGLVKPSETLSLTCTVSGGSISRISYYWGWIRQPPGKGLEWIGSIYDSGSTYYNPSLKSRVTISIDTSKNQFSLKLSSVTAADTAVYYCVRYSSSSAFAFDYWGQGTLVTVSS
VL: DIQMTQSPSSVSASVGDRVTITCRASQGISSWLAWYQQKPGKAPKLLIYAASSLQSGVPSRFSGSGSGTDFTLTISSLQPEDFATYYCQQANSFPFTFGPGTKVDIKR
B3: H1H27729P-N297Q (antibody, V domains shown)
VH: QVQLVESGGGLVKPGGSLRLSCAASGFIFSDYYMSWIRQAPGKGLEWVSYISSSGTTIYGDSVKGRFTMSRDNAKNSLYLQMNSLRAEDTAVYYCARNYALFDYWGQGTLVTVSS
VL: DIQMTQSPSSLSASVGDRVTITCQASQDISKYLNWYQQKPGKAPKLLIYYTSNLETGVPSRFSGSGSGTDFTFTISSLQPEDIATYYCHQSDYLPFTFGPGTKVDIKR
B4: H1H21227N-N297Q (antibody, V domains shown)
VH: QVQLVQSGAEVKKPGASVKVSCKVSGYTLTELSIHWVRQVPGKGLEWMGGFDPEEGETIFAQEFRDRVTLTEDTSPDTAYMELSSLKSEDAAVYYCTTPRYCNNGICYDYWGQGTLVTVSS
VL: DIQMTQSPSSLSASVGDRVTITCRASQSISNYLNWYQQKPGKAPKLLIYTASSLQSGVPSRFSGSGSGTDFTLTISSLQTEDFATYYCQQSYSNFPITFGQGTRLEIKR
B5: H1H21227N (antibody, V domains shown)
VH: B4 VH
VL: B4 VL
B6: H1H21231N (antibody, V domains shown)
VH: EVQLVESGGGLVQPGGSLRLSCAASGFTFSDHYMDWVRQAPGKGLEWVGRTRNKANSHTTEYTASVTGRFTISRDDSRNSLYLQMNSLKTEDTAVYYCVRAGIIGTLFDYWGQGTLVTVSS
VL: B4 VL with S7F, N31S, Y32F, Y36F, L46F, T50A, T80P, N94S, F95P
B7: H2aM25695N (antibody, mouse IgG2a, V domains shown)
VH: B1 VH with D58N, T73M, S83N, M85V
VL: B1 VL with N32S, T85A, H90Q, N94S, P96Y
notes: mouse IgG2a Fc
B8: H2aM21228N (antibody, mouse IgG2a, V domains shown)
VH: VQLVESGGGLVQPGGSLRLSCAASGFTFSDHYMDWVRQAPGKGLEWVGRTRNKANSHTTEYAASVSGRFTISRDDSKNSLYLQMNSLKTEDTAVYYCTRAGIIGTLFDYWGQGTLVTVSS
VL: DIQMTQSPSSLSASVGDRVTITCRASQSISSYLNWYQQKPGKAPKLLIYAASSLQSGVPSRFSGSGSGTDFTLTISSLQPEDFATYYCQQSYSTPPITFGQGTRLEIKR
notes: mouse IgG2a Fc
B9: H1xH29283P2 (antibody, V domains shown)
VH: QVQLVQSGTEVKKPGSSVKVSCKASGGTFSRYTFSWVRQAPGQGLEWMGGIIPIFGTTNYAQKFQGRVTITTDESTSTVYMELSSLRSEDTAVYYCTRGGRYGWFDPWGQGTLVTVSS
VL: not shown
notes: prefix H1xH not explained for the anti-MSR1 antibodies
B10: H1xH27759P2 (antibody, V domains shown)
VH: EVQLVESGGGFVQPGGSLRLSCAASGFTFSSYAMSWVRQAPGKGLEWVSAISGTGSNTYYADSVKGRFTISRDNSKNTLYLQMNSLRAEDTAVYYCAKDRVTTVTYYFDYWGQGTLVTVSS
VL: not shown
notes: as for B9
B11: H1H27760P2-N297Q (antibody, human IgG1, V domains shown)
VH: EVQLVESGGGLVQPGRSLRLSCAASGFTFDAYAMHWVRQAPGKGLEWVSGISWNSGSIGYADSVKGRFTISRDNAKNSLYLQMNSLREEDTALYYCAKDKILELYYYGMDVWGQGTTVTVSS
VL: not shown
notes: human IgG1 Fc with N297Q; also called H1H27760P-N297Q
B12: H1H21231N-N297Q (antibody, human IgG1, V domains shown)
VH: B6 VH
VL: B4 VL with S7F, N31S, Y32F, Y36F, L46F, T50A, T80P, N94S, F95P
notes: human IgG1 Fc with N297Q
B13: H1H27749P-N297Q (antibody, human IgG1, V domains shown)
VH: QVQLQESGPGLVKPSETLSLTCTVSDGSISSYYWSWIRQPPGRGLEWIGFIYYSGSTSYNPSLKSRVTISVDTSMSQFSLKLRSVTAADTAVYYCARGSPFDYWGPGTLVTVSS
VL: EIVLTQSPGTLSLSPGERATLSCRASQSVSSSYLAWYQQRPGQAPSLLISGASRRATGIPDRFSGSGSGTDFTLTIRRLEPEDFAMYYCQQYGSSPPTFGGGTKVEIKR
notes: human IgG1 Fc with N297Q
B14: H1H27732P-N297Q (antibody, human IgG1, V domains shown)
VH: QLQLQESGPGLVKPSETLSLTCTVSGGSISSSTYYWGWIRQPPGKGLEWIGSFYYSGSTYYNPSLKSRVTISVGTSKNQFSLKLSSVTAADTAVYFCARGGLLGRPFVIWGQGTMVTVSS
VL: DIQMTQSPSSLSASVGDRVTITCRASQGIRNDLGWYQQKPGKAPKRLIYAASSLQSGVPSRFSGSGSGTEFTLTISSLQPEDFATYYCLQHNSYPLTFGGGTKVEIKR
notes: human IgG1 Fc with N297Q
B15: H1H27736P-N297Q (antibody, human IgG1, V domains shown)
VH: EVQLVESGGGLVQPGGSLRLSCAASGFTFSSYAMSWVRQAPGKGLEWVSSISGSGDSTFYTDSVKGRFTISRDISKNTLYLQMNSLRAEDTAVYYCAKDRLLWFGDLISPFHYWGQGTLVTVSS
VL: EIVLTQSPGTLSLSPGERATLSCRASQSVSNIYLAWYQQKPAQAPRLLIYGASSRATGIPDRFSVSGSGTDFTLTISRLEPEDFAVYYCQQYGSSPRTFGQGTKVEIKR
notes: human IgG1 Fc with N297Q
B16: H1H27756P-N297Q (antibody, human IgG1, V domains shown)
VH: QVQLVESGGGVVQPGRSLRLSCAASGFTFSNYDMHWVRQAPGKGLEWMAVISYDGINKYYADSVKGRFTISRDNSKNTLYLQMNSLRAEDTAVYYCAKGTYSWYFDLWGRGTLVTVSS
VL: not shown
notes: human IgG1 Fc with N297Q

Molecular target: T1, human MSR1 with a C-terminal Myc tag …
Assay: cell-based or functional assay

Binder	IC50 of inhibition of Dil-Acetylated LDL uptake [nM]	IC50 of inhibition of Dil-Oxidized LDL uptake [nM]	% Inhibition of Dil-Acetylated LDL uptake [%]	% Inhibition of Dil-Oxidized LDL uptake [%]
B1	0.71	4.3	–	–
B2	1.8	> 10	–	–
B3	1.2	–	–	–
B4	2.4	1.8	65	94
B5	2.1	2	65	89
B6	3.5	3.6	63	78

Molecular target: T2, full length human MSR1 with a …
Assay: ECL cell binding, HEK293.Myc.hMSR1
Protocol: (§1) All cells were washed once with 1×PBS with Ca²⁺/Mg²⁺ and counted with a Cellometer™ Auto T4 cell counter (Nexcelom Bioscience). Approximately 1.0×10⁴ cells were seeded separately onto 96-well carbon electrode plates [MULTI-ARRAY high bind plate, Meso Scale Diagnostics] and incubated for 1 hour at 37° C. Non-specific binding sites were then blocked by 2% BSA (w/v) in PBS with Ca²⁺/Mg²⁺ for 1 hour at room temperature. THP-1 cells were pre-incubated for 0.5 hours at room temperature in sample dilution buffer with: 1) 1 mg/mL Fc receptor block reagents to block Fc gamma receptors on THP-1 cell surface [whole molecule human IgG (Jackson Immunoresearch, Cat #009-000-003) for wells being tested with anti-MSR1-mFc antibodies or 2) whole molecule mIgG (Jackson Immunoresearch, Cat #015-000-003) for wells being tested with anti-MSR1-hFc antibodies. Antibody binding on HEK293.Myc.hMSR1, HEK293.mfMSR1 and HEK293 cells was tested without Fc receptor block reagents. […] Plates were then washed to remove unbound antibodies an AquaMax2000 plate washer with a cell washing head (MDS Analytical Technologies). […] Plates were washed and developed with Read Buffer (Meso Scale Diagnostics, Cat #R92TD-2) according to manufacturer's recommended procedure and luminescent signals were recorded with a SECTOR Imager 600 (Meso Scale Diagnostics). Luminescence intensity, measured in relative light units (RLU), was recorded to indicate the binding intensity of each antibody at the range of concentrations.

Binder	binding signal ratio to isotype control (11 nM) [fold]
B7	35
B8	66
B9	26
B10	22

Molecular target: T3, mouse MSR1 on RAW264.7 cells
Assay: flow cytometry, RAW264.7 cells, 10 ug/mL;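 note: antibodies bound to RAW264.7 cells for 30 min on ice after Fc block with mouse IgG, S/N is MFI relative to unstained cells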
Protocol: To block binding to Fc receptors, RAW264.7 cells were incubated for 30 minutes at 4° C. with 500 μg/mL mouse IgG (Jackson ImmunoResearch, Cat #015-000-003) diluted in staining buffer, while B16F10.9 cells remained in staining buffer. Following Fc receptor blocking, 10 μg/mL of anti-MSR1 antibodies or an isotype control antibody were added to the cells and were subsequently incubated for 30 minutes on ice. […] The signal to noise (S/N) was determined by calculating the ratio of the anti-MSR1 antibodies or the control antibodies MFI to the unstained sample MFI (Table 16).

Binder	MFI	S/N
B11	3430	–
B12	3580	1
B13	3790	–
B14	3420	–
B15	3550	–
B16	4570	–

Molecular target: T4, full length monkey MSR1 on …
Assay: ECL cell binding, HEK293.mfMSR1
Protocol: as §1

Binder	binding signal ratio to isotype control (11 nM) [fold]
B7	45
B8	60
B9	24
B10	21
